From PMC11685440 come the findings set out here.

The target in this assay is 6xHis-MBP-PmARF1^DBD (Penium margaritaceum AB-class ARF1 DNA-binding domain) (Penium margaritaceum). The experiment in a line: SEC-MALS; 6xHis-MBP-PmARF1^DBD at 1 mg/ml in 1x PBS, Superdex 200 Increase 10/300 GL, room temperature.

On to “6xHis-MBP-PmARF1^DBD (Penium margaritaceum AB-class ARF1 DNA-binding domain) (domain or fragment)”, for which the stoichiometry N stood at 2.

For orientation: stoichiometry N means the number of molecules, sites or subunits per partner or assembly.
